Numbering of substitutions follows the chain as printed. Names and notes keep the numbering of the source.
B1: recombinant tridegin polypeptide expressed in the yeast Pichia pastoris: tridegin polypeptide encoded by SEQ ID No. 90, secreted from Pichia pastoris; main product lacks the 11 C-terminal residues (protein)
chain: MRFPSIFTAVLFAASSALAAPVNTTTEDETAQIPAEAVIGYSDLEGDFDVAVLPFSNSTNNGLLFINTTIASIAAKEEGVSLEKRKLLPCKEWHQGIPNPRCWCGADLECAQDQYCAFIPQCRPRSELIKPMDDIYQRPVEFPNLPLKPREESLEHHHHHH
modifications: main product lacks 11 C-terminal residues
notes: main product lacks the 11 C-terminal residues
B2: H10A: modified tridegin, XnY mutation of SEQ ID No. 1, expressed in Escherichia coli (protein)
chain: MKLLPCKEWAQGIPNPRCWCGADLECAQDQYCAFIPQCRPRSELIKPMDDIYQRPVEFPNLPLKPREE
B3: G12A: modified tridegin, XnY mutation of SEQ ID No. 1, expressed in Escherichia coli (protein)
chain: B2 chain with A10H, G12A
B4: F58A: modified tridegin, XnY mutation of SEQ ID No. 1, expressed in Escherichia coli (protein)
chain: B2 chain with A10H, F58A
B5: M48A: modified tridegin, XnY mutation of SEQ ID No. 1, expressed in Escherichia coli (protein)
chain: B2 chain with A10H, M48A
B6: K07A: modified tridegin, XnY mutation of SEQ ID No. 1, expressed in Escherichia coli (protein)
chain: B2 chain with K7A, A10H
B7: D50A: modified tridegin, XnY mutation of SEQ ID No. 1, expressed in Escherichia coli (protein)
chain: B2 chain with A10H, D50A
B8: N60A: modified tridegin, XnY mutation of SEQ ID No. 1, expressed in Escherichia coli (protein)
chain: B2 chain with A10H, N60A
B9: P65A: modified tridegin, XnY mutation of SEQ ID No. 1, expressed in Escherichia coli (protein)
chain: B2 chain with A10H, P65A
B10: F34A: modified tridegin, XnY mutation of SEQ ID No. 1, expressed in Escherichia coli (protein)
chain: B2 chain with A10H, F34A
B11: D50A, P55L: spontaneously arising double mutant of tridegin SEQ ID No. 1, expressed in Escherichia coli (protein)
chain: B2 chain with A10H, D50A, P55L
B12: Y31A: modified tridegin, XnY mutation of SEQ ID No. 1, expressed in Escherichia coli (protein)
chain: B2 chain with A10H, Y31A
B13: R39A: modified tridegin, XnY mutation of SEQ ID No. 1, expressed in Escherichia coli (protein)
chain: B2 chain with A10H, R39A
B14: I45A: modified tridegin, XnY mutation of SEQ ID No. 1, expressed in Escherichia coli (protein)
chain: B2 chain with A10H, I45A
B15: L24A: modified tridegin, XnY mutation of SEQ ID No. 1, expressed in Escherichia coli (protein)
chain: B2 chain with A10H, L24A
B16: K02A: modified tridegin, XnY mutation of SEQ ID No. 1, expressed in Escherichia coli (protein)
chain: B2 chain with K2A, A10H
B17: C20A: tridegin modified by replacement of a cysteine residue, expressed in Escherichia coli (protein)
chain: B2 chain with A10H, C20A
B18: C26A: tridegin modified by replacement of a cysteine residue, expressed in Escherichia coli (protein)
chain: B2 chain with A10H, C26A
B19: C06A: tridegin modified by replacement of a cysteine residue, expressed in Escherichia coli (protein)
chain: B2 chain with C6A, A10H
B20: C18A: tridegin modified by replacement of a cysteine residue, expressed in Escherichia coli (protein)
chain: B2 chain with A10H, C18A

Each molecule was assayed against T1, factor XIIIa (Homo sapiens, UniProt P00488) (assay: biochemical). Settings: not given.
T1 sequence (P00488 39-732 limits assumed): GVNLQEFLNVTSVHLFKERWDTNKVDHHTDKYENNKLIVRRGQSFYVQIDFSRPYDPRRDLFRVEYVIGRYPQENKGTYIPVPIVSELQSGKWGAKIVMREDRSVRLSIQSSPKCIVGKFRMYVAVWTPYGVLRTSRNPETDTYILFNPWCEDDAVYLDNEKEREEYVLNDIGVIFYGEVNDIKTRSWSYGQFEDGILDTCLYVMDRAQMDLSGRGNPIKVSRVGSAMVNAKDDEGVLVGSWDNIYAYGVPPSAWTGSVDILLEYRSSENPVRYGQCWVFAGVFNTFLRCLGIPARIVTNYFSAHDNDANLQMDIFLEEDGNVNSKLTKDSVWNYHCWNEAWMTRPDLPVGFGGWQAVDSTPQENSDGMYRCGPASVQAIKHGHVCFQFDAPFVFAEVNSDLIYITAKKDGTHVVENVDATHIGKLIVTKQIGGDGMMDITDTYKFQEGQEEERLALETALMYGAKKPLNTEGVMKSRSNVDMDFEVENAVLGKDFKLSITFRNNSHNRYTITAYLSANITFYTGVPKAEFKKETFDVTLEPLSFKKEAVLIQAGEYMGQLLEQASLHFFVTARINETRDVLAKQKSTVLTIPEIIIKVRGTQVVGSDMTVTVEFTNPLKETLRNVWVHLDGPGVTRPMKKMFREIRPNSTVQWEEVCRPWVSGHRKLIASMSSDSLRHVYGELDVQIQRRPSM
Format: biochemical
Procedure: The assay is based on factor XIII being activated to form factor XIIIa by thrombin which is present in the reagents. Factor XIIIa links a specific peptide substrate to glycine ethyl ester with ammonium ions being released. The latter are determined in an enzyme reaction which proceeds in parallel. The extinction at 340 nm was used to measure the decrease in NADH. For the measurement, peptides were present in 50% acetonitrile in a stock concentration of 5 mM. The NADH and detection reagents which were supplied by the manufacturer were dissolved in 3 ml of water, with the activator reagent subsequently being dissolved in 3 ml of NADH reagent. For use, the activator and detection reagents were mixed in a ratio of 1:1. In order to carry out the measurement in microtiter plate format, 100 μl of sample (inhibitor or control buffer), 25 μl of factor XIII (10 U/ml) and 150 μl of working reagent were mixed. The measurement was carried out continuously for 20 min at 340 nm, and at 37° C., in a microtiter plate photometer. For the evaluation, the differences in the values measured after 16 and 20 min were compared.
The relative inhibitory effect (%) was determined at a final variant concentration of 5.45 μM. The inhibitory effect of the recombinant tridegin polypeptide was normalized to 100% (at 5.45 μM).
The above-described Berichrom® assay was used to determine the relative inhibitory effect (%) at a final concentration of the peptides of 7.27 μM. The inhibitory effect of the recombinant tridegin polypeptide, at a final concentration of 7.27 μM, was normalized to 100%.
The relative inhibitory effect (%) was determined at a final variant concentration of 5.45 μM. The inhibitory effect of the recombinant wild-type tridegin poly-peptide (at 5.45 μM) was normalized to 100%. The oligonucleotides which were used to produce the abovementioned variants are also specified in the table.

| Molecule | inhibitory activity compared with wild-type tridegin polypeptide expressed in Escherichia coli |
| --- | --- |
| B1 | even more effective |

Same assay, conditions: Table 2; final variant concentration 5.45 μM; recombinant tridegin polypeptide normalized to 100%

| Molecule | Relative inhibitory effect (%) |
| --- | --- |
| B2 | 87 |
| B3 | 97 |
| B4 | 60 |
| B5 | 91 |
| B6 | 90 |
| B7 | 53 |
| B8 | 68 |
| B9 | 51 |
| B10 | 96 |
| B11 | 84 |
| B12 | 69 |
| B13 | 49 |
| B14 | 115 |
| B15 | 92 |
| B16 | 113 |

Same assay, conditions: Table 3; final peptide concentration 7.27 μM; recombinant tridegin polypeptide at 7.27 μM normalized to 100%

| Molecule | relative inhibitory effect (% of recombinant tridegin) at 7.27 µM [%] |
| --- | --- |
| Ac-DDIYQRPVEFPNLPLKPREE-NH2 [SEQ ID No. 26] | 35.6 |
| Ac-IKPMDDIYQRPVEFPNLPLK-NH2 [SEQ ID No. 24] | 43.5 |
| Ac-PMDDIYQRPVEFPNLPLKPR-NH2 [SEQ ID No. 25] | 42.1 |

Same assay, conditions: Table 4, Cys variants; final variant concentration 5.45 μM; wild-type tridegin polypeptide normalized to 100%

| Molecule | Relative inhibitory effect (%) |
| --- | --- |
| B17 | 63 |
| B18 | 82 |
| B19 | 72 |
| B20 | 93 |
